The numbers were not newly measured in PMC2667909, which cites them from elsewhere.

The Kd is the concentration at which binding is half-saturated.

For this series, the target named is Histone H3 peptide (H3K27me3) (Drosophila melanogaster) (UniProt P02299).

Regarding “Polycomb (Pc) chromodomain (from UniProt P26017)”, the Kd is 5 µM.
